Data as given in FireProtDB (doi:10.1073/pnas.96.20.11283).
“And” between values parts separate entries of the source, which are not always exact repeats. Equal entries are not always repeated.

Settings: Homo sapiens, pH 4.2, 20 °C, Urea, CD, sodium acetate 2 mM, whole UniProt chain shown

B1: Alpha-lactalbumin wild type, P00709 (protein)
chain: MRFFVPLFLVGILFPAILAKQFTKCELSQLLKDIDGYGGIALPELICTMFHTSGYDTQAIVENNESTEYGLFQISNKLWCKSSQVPQSRNICDISCDKFLDDDITDDIMCAKKILDIKGIDYWLAHKALCTEKLEQWLCEKL
denaturant m value (Na2SO4 20 mM): 0.88 kcal/mol/M and 0.67 kcal/mol/M
denaturant midpoint (higher = more stable) (Na2SO4 20 mM): 4.34 M and 5.85 M
denaturant m value (NaCl 30 mM): 0.58 kcal/mol/M
denaturant midpoint (higher = more stable) (NaCl 30 mM): 5.43 M
denaturant midpoint (higher = more stable) (NaClO4 50 mM): 4.62 M and 6.06 M
